Results taken from patent publication US20040142894, “Modulation of cellular proliferation” (published 2004).

Biological target: T1, HiNF-P (enriched chromatographic fraction, HeLa) (Homo sapiens, UniProt Q9BQA5 Q9BQA5:1-517)
T1 sequence: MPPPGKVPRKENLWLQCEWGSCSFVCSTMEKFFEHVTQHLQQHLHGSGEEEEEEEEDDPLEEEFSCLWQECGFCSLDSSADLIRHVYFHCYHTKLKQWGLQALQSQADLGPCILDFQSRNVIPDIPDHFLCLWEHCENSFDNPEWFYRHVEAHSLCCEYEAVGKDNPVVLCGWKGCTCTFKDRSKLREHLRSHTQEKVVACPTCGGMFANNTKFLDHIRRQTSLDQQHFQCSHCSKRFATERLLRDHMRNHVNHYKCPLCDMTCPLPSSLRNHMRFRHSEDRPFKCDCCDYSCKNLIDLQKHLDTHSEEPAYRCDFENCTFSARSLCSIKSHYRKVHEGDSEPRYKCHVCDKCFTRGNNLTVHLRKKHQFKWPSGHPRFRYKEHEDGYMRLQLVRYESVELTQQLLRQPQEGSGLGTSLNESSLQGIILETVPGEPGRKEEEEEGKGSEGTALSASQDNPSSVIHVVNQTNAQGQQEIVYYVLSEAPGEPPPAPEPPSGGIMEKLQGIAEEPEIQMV
Assay: UV cross-linking, 65 kDa; 100 uM Zn2+ and Mg2+
Conditions: label: 32P-dCTP
Procedure: FIG. 6B is a representation of an autoradiogram showing UV cross-linking of HiNF-P/Site II complexes. Oligonucleotides spanning wild type (WT) and mutant (Pmut) Site II sequences were labeled with BrdUTP and ³²P-dCTP then incubated with a fraction (7.5 μl; 0.4M KCl) containing enriched HiNF-P binding activity. The reaction mixture was exposed to UV light (305 nm) for 60 minutes and then digested with DNase I and MNase. Cross-linked, labeled proteins were analyzed using 10% SDS-PAGE and subjected to autoradiography. Molecular weight makers are shown at the left. The arrow indicates the 65 kDa HiNF-P-DNA complex.
Ultraviolet cross-linking experiments were performed by adapting a method described in Ausubel, F. M. et al. (Current Protocols in Molecular Biology. Greene and Wiley, New York, 1989). A radiolabeled and BrdU-substituted probe was prepared by incubating 20 pmol of partially double-stranded HiNF-P-specific oligonucleotide (top strand: 5′-CGC TTT CGG-3′, SEQ ID NO:13; Bottom strand: 5′-CAAGAGTATCGGACCAGATTGAAAACCGAAAGCG-3′, SEQ ID NO:14) with 1 μl of 50× dNTP/BrdUTP solution (containing 50 μM DATP, 50 μM dGTP, 37.5 μM dTTP and 12.5 μM BrdUTP), 150 μCi α-³²P-dCTP and 1 μl of a solution containing 5 mM DTT and 1 μg/μl BSA, in a total reaction volume of 25 μl. […] Following nuclease digestion, the products were analyzed by 10% SDS-PAGE.

B1: BrdU-substituted Site II probe (dsDNA)
DNA 1: CAAGAGTATCGGACCAGATTGAAAACCGAAAGCG
DNA 2: CGCTTTCGGTTTTCAATCTGGTCCGATACTCTTG
modifications: partial BrdU substitution for T in filled-in strand
- binding result: binds
